In patent publication US20230071371A1 (Scripps Research, published 2023):
Bridges are numbered along the chain shown (N, C = ends). Where no end group is shown, it is not given here. [ ]: non-standard residue; d: D form. hArg = N=C(N)NCCCC[C@H](N)C(=O)O; staple K4 = not defined here; staple K5 = not defined here; Nle = CCCC[C@H](N)C(=O)O; L4A = not defined here; L5A = not defined here; K0 = not defined here; K4 = not defined here; K5 = not defined here; L4 = not defined here; L5 = not defined here; Aib = CC(C)(N)C(=O)O

T1: GPR10 (UniProt P49683 1-370, limits assumed)
T1 sequence (looked up): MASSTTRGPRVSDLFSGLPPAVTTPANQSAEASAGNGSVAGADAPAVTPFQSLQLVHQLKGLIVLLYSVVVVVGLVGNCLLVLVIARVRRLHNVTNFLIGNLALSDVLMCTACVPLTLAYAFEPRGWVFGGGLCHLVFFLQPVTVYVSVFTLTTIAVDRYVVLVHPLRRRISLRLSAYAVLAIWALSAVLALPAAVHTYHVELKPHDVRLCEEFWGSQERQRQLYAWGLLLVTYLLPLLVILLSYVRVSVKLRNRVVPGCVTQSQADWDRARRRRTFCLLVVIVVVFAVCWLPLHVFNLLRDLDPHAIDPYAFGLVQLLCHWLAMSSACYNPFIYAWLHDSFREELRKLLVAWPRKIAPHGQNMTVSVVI

T2: human GIPR (human, UniProt P48546 22-466)
T2 sequence (looked up): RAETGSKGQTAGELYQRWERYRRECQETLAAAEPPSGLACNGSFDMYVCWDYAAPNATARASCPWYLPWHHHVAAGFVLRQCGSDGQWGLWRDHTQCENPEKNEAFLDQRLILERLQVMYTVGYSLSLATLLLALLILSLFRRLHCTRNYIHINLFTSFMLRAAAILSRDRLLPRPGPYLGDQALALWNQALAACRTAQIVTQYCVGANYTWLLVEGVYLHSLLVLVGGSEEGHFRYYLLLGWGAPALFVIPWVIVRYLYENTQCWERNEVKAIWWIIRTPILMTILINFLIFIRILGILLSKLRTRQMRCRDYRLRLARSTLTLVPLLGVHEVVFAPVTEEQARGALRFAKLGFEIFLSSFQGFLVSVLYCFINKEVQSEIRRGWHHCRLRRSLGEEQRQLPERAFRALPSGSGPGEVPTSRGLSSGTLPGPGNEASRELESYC


Molecular target: T3, human GLP-1R (human, UniProt P43220 24-463)
Assay: cell-based or functional assay

Molecule | EC50 cAMP 0% FBS [nM] | EC50 Cre-Luc [nM]
HXEGTFTSDVSSYLEGKAAKEFIKWLVKGRG (staple K5 on Lys 17, 24; Aib 2; C-terminal -OH) [Conjugate 181] | 0.026 | –
H[Aib]EGTFTSDVSSYLEGCAAKEFICWLVKGRG-OH (linker 17-24 via L5A; reading uncertain) [Conjugate 186] | – | 7.3

Molecular target: T1, GPR10
Assay: cell-based or functional assay

Molecule | GPR10 EC50 0% FBS [nM] | GPR10 EC50 10% FBS [nM]
SRAHQCS[Nle]ETRTCDINPAWYTG[hArg]GIRPVGRF-NH2 (linker 6-13 via L5; reading uncertain) [Conjugate 263] | 7.8 | 80
SRAHQCS[Nle]ETRTCDINPAWYTG[hArg]GIRPVGRF-NH2 (linker 6-13 via L4; reading uncertain) [Conjugate 259] | 12 | 26

Molecular target: human NPFF2R (human, UniProt Q9Y5X5 1-522)
Assay: cell-based or functional assay

Chain of human NPFF2R (Q9Y5X5 whole entry): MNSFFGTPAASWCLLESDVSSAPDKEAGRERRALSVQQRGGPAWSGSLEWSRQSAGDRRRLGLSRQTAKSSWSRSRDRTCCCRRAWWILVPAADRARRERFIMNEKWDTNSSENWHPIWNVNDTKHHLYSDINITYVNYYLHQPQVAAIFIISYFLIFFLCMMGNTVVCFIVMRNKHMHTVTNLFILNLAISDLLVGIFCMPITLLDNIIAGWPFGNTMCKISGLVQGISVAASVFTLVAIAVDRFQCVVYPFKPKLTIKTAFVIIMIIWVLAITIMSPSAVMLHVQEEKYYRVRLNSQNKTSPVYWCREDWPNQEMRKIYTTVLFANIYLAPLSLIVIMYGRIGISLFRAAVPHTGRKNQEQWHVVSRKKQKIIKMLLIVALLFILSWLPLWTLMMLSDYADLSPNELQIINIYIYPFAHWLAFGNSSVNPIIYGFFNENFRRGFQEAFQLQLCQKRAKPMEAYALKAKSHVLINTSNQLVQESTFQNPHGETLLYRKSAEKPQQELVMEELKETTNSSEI

Molecule | NPFF2R EC50 0% FBS [nM] | NPFF2R EC50 10% FBS [nM]
SRAHQCS[Nle]ETRTCDINPAWYTG[hArg]GIRPVGRF-NH2 (linker 6-13 via L5; reading uncertain) [Conjugate 263] | 520 | > 10000
SRAHQCS[Nle]ETRTCDINPAWYTG[hArg]GIRPVGRF-NH2 (linker 6-13 via L4; reading uncertain) [Conjugate 259] | 470 | > 10000

Molecular target: T1, GPR10
Assay: cell-based or functional assay
Remark: another data set of the same source

Molecule | GPR10 EC50 [nM]
SRAHQCS[Nle]ETRTCDINPAWYTG[hArg]GIRPVGRF-NH2 (linker 6-13 via L5; reading uncertain) [Conjugate 263] | 80
SRAHQCS[Nle]ETRTCDINPAWYTG[hArg]GIRPVGRF-NH2 (linker 6-13 via L4; reading uncertain) [Conjugate 259] | 26

Molecular target: T3, human GLP-1R
Assay: not given
Target sequence in this assay (P43220 24-463): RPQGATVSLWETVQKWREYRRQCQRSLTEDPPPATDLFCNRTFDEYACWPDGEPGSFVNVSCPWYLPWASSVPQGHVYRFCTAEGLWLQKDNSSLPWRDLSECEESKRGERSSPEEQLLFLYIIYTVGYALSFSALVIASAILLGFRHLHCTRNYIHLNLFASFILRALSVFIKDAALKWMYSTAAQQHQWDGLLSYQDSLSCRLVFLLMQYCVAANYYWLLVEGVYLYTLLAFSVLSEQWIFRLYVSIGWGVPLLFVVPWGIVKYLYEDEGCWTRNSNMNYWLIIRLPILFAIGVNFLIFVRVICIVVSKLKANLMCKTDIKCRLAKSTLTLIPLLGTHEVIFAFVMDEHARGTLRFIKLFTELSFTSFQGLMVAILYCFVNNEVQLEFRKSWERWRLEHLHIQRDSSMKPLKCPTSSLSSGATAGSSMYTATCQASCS

Molecule | EC50 (read off the curve), CRE-luciferase reporter, GLP1R-Creluc [nM]
Tirzepatide (peptide) | 0.2

Molecular target: human serum albumin (human) (UniProt P02768)
Assay: calculated from the SPR affinity

Chain of human serum albumin (human) (P02768 25-609 limits assumed): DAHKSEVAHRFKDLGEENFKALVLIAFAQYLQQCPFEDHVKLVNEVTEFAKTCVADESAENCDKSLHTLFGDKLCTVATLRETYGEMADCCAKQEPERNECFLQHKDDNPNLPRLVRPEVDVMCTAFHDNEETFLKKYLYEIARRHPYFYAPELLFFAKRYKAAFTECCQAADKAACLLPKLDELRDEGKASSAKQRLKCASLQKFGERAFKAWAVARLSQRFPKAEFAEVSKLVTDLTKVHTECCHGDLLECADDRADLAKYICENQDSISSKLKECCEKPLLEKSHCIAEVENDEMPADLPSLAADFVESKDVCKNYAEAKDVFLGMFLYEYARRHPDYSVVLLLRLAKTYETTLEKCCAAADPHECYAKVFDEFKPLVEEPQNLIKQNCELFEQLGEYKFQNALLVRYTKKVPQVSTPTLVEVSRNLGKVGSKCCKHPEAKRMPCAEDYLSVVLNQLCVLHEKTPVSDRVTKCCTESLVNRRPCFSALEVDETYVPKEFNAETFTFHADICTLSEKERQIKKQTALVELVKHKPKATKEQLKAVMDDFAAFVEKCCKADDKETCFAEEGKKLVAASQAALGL

Molecule | fu (unbound fraction) [%]
semaglutide (peptide) | 0.69

Molecular target: rat serum albumin (rat) (UniProt P02770)
Assay: calculated from the SPR affinity

Chain of rat serum albumin (rat) (P02770 25-608 limits assumed): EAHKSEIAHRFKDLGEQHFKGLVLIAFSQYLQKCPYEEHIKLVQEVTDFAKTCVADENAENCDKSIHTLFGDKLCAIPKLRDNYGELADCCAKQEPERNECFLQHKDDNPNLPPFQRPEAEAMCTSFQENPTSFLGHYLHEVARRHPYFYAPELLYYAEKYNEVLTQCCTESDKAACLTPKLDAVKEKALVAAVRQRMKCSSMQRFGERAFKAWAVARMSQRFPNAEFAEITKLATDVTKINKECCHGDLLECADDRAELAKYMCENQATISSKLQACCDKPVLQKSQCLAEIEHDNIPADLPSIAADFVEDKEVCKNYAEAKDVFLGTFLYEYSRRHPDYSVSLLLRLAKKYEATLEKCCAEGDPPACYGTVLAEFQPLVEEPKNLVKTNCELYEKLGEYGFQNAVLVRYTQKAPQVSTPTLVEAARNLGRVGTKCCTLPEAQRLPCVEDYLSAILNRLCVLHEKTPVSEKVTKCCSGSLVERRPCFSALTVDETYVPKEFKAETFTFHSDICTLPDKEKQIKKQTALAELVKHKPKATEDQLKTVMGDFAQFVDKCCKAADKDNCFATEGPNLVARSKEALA

Molecule | fu (unbound fraction) [%]
semaglutide (peptide) | 3.3

Molecular target: T3, human GLP-1R
Assay: cell-based or functional assay
Remark: another data set of the same source

Molecule | EC50 cAMP 0% FBS [nM]
YXEGTFTSDYSIYKDKQAAXKFVNWLLAGGPSSGAPPPS (staple K5 on Lys 14, 21; Aib 2, 20) [Conjugate 141] | 0.022

Molecular target: T2, human GIPR
Assay: cell-based or functional assay

Molecule | EC50 cAMP 0% FBS [nM]
YXEGTFTSDYSIYKDKQAAXKFVNWLLAGGPSSGAPPPS (staple K5 on Lys 14, 21; Aib 2, 20) [Conjugate 141] | 0.0048
Y[Aib]EGTFTSDYSIYKDKQAA[Aib]KFVNWLLAGGPSSGAPPPS (linker 14-21 via staple K4; reading uncertain) [Conjugate 142] | 0.008

Molecular target: T3, human GLP-1R
Assay: cell-based or functional assay
Remark: another data set of the same source

Molecule | EC50 Creluc [nM]
YXEGTFTSDYSIYKDKQAAXKFVNWLLAGGPSSGAPPPS (staple K5 on Lys 14, 21; Aib 2, 20) [Conjugate 141] | 0.01
YXEGTFTSDYSIYKDKQAALKFVAWLLAGGPSSGAPPPS (staple K4 on Lys 14, 21; Aib 2; D-Ser 8, 11; Nle 20) [Conjugate 169] | 1.32
YXEGTFHSDYDIYKDKQAALKFVAWLLAGGPSSGAPPPS (staple K4 on Lys 14, 21; Aib 2; Nle 20) [Conjugate 167] | 18.8
YXEGTFTSDYSIYKDKQAALKFVAWLLAGGPSSGAPPPS (staple K5 on Lys 14, 21; Aib 2; D-Ser 8, 11; Nle 20) [Conjugate 170] | 3.74
YXEGTFHSDYDIYKDKQAALKFVAWLLAGGPSSGAPPPS (staple K5 on Lys 14, 21; Aib 2; Nle 20) [Conjugate 168] | > 1000
Y[Aib]EGTFHSDYDIYKDKQAA[Aib]KFVQWLLAGGPSSGAPPPS (linker 14-21 via staple K4; reading uncertain) [Conjugate 165] | 13.8
Y[Aib]EGTFTSDYSIYKDKQAA[Aib]KFVNWLLAGGPSSGAPPPS (linker 14-21 via staple K4; reading uncertain) [Conjugate 142] | 0.02
Y[Aib]EGTFHSDYDIYKDKQAA[Aib]KFVQWLLAGGPSSGAPPPS (linker 14-21 via staple K5; reading uncertain) [Conjugate 166] | 83.9

Molecular target: T2, human GIPR
Assay: cell-based or functional assay
Remark: another data set of the same source

Molecule | EC50 Creluc [nM]
YXEGTFTSDYSIYKDKQAAXKFVNWLLAGGPSSGAPPPS (staple K5 on Lys 14, 21; Aib 2, 20) [Conjugate 141] | 0.02
YXEGTFTSDYSIYKDKQAALKFVAWLLAGGPSSGAPPPS (staple K4 on Lys 14, 21; Aib 2; D-Ser 8, 11; Nle 20) [Conjugate 169] | 11.3
YXEGTFHSDYDIYKDKQAALKFVAWLLAGGPSSGAPPPS (staple K4 on Lys 14, 21; Aib 2; Nle 20) [Conjugate 167] | 20.4
YXEGTFTSDYSIYKDKQAALKFVAWLLAGGPSSGAPPPS (staple K5 on Lys 14, 21; Aib 2; D-Ser 8, 11; Nle 20) [Conjugate 170] | 15.7
YXEGTFHSDYDIYKDKQAALKFVAWLLAGGPSSGAPPPS (staple K5 on Lys 14, 21; Aib 2; Nle 20) [Conjugate 168] | 303
Y[Aib]EGTFHSDYDIYKDKQAA[Aib]KFVQWLLAGGPSSGAPPPS (linker 14-21 via staple K4; reading uncertain) [Conjugate 165] | 5.31
Y[Aib]EGTFTSDYSIYKDKQAA[Aib]KFVNWLLAGGPSSGAPPPS (linker 14-21 via staple K4; reading uncertain) [Conjugate 142] | 0.02
Y[Aib]EGTFHSDYDIYKDKQAA[Aib]KFVQWLLAGGPSSGAPPPS (linker 14-21 via staple K5; reading uncertain) [Conjugate 166] | 12.6

Molecular target: T2, human GIPR
Assay: not given

Molecule | EC50 (read off the curve), CRE-luciferase reporter, GIPR Creluc [nM]
NNC0090-2746 (peptide) | 0.008

Molecular target: T3, human GLP-1R
Assay: cell-based or functional assay
Remark: another data set of the same source

Molecule | EC50 cAMP 0% FBS [nM]
HXQGTFTSDYSKYLDKKKAKEFKQWLLNXGRNRNNIA (staple K4 on Lys 16, 23; Aib 2, 29) [Conjugate 129] | 31.1
H[dS]QGTFTSDYSKYLDEKAAKEFIKWLLNGGPSSGAPPPS (linker 17-24 via K0; ends not checked) [Conjugate 124] | 0.049
H[dS]QGTFTSDYSKYLDEKAAKEFIKWLLRA (linker 17-24 via K4; reading uncertain) [Conjugate 123] | 2.37
H[dS]QGTFTSDYSKYLDECAAKEFICWLLRA (linker 17-24 via L4A; reading uncertain) [Conjugate 136] | 2.87
H[dS]QGTFTSDYSKYLDECAAKEFICWLLRA (linker 17-24 via L5A; reading uncertain) [Conjugate 137] | 2.02
HXQGTFTSDYSKYLDSKKAQEFVKWLLNGPSSGAPPPS (staple K4 on Lys 17, 24; Aib 2) [Conjugate 127] | 0.148
HXQGTFTSDYSKYLDKKAAKEFKQWLLNGPSSGAPPPS (staple K4 on Lys 16, 23; Aib 2) [Conjugate 128] | 6.64
H[dS]QGTFTSDYSKYLDEKAAKEFIKWLLNGGPSSGAPPPS (linker 17-24 via K4; ends not checked) [Conjugate 122] | 0.0037
H[dS]QGTFTSDYSKYLDEKAAKEFIKWLLNGGPSSGAPPPS (linker 17-24 via K5; ends not checked) [Conjugate 121] | 1.36
HXQGTFTSDYSKYLDEKAAKEFIKWLLNGRNRNNIA (staple K4 on Lys 17, 24; Aib 2) [Conjugate 125] | 0.21

Molecular target: human GCGR (human, UniProt P47871 26-477)
Assay: cell-based or functional assay

Chain of human GCGR (P47871 26-477): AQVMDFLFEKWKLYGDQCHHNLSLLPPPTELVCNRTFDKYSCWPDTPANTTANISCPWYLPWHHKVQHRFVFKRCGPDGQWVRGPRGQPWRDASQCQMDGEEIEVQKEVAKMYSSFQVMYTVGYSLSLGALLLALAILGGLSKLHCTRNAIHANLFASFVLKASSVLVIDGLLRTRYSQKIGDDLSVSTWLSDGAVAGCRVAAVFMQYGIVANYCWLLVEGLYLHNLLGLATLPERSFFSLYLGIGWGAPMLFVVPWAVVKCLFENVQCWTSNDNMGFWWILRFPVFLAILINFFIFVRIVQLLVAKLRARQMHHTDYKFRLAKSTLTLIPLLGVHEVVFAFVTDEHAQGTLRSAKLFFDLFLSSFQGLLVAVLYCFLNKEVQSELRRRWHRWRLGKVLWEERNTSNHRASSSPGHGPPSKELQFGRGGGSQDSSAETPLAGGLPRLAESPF

Molecule | EC50 cAMP 0% FBS [nM]
HXQGTFTSDYSKYLDKKKAKEFKQWLLNXGRNRNNIA (staple K4 on Lys 16, 23; Aib 2, 29) [Conjugate 129] | 56
H[dS]QGTFTSDYSKYLDEKAAKEFIKWLLNGGPSSGAPPPS (linker 17-24 via K0; ends not checked) [Conjugate 124] | 0.319
H[dS]QGTFTSDYSKYLDEKAAKEFIKWLLRA (linker 17-24 via K4; reading uncertain) [Conjugate 123] | 0.451
H[dS]QGTFTSDYSKYLDECAAKEFICWLLRA (linker 17-24 via L4A; reading uncertain) [Conjugate 136] | 0.559
H[dS]QGTFTSDYSKYLDECAAKEFICWLLRA (linker 17-24 via L5A; reading uncertain) [Conjugate 137] | 0.444
HXQGTFTSDYSKYLDSKKAKEFVKWLLNXGPSSGAPPPS (not fully specified; staple K4 on Lys 17, 24; Aib 2, 29) [Conjugate 126] | 0.092
HXQGTFTSDYSKYLDSKKAQEFVKWLLNGPSSGAPPPS (staple K4 on Lys 17, 24; Aib 2) [Conjugate 127] | 0.009
HXQGTFTSDYSKYLDKKAAKEFKQWLLNGPSSGAPPPS (staple K4 on Lys 16, 23; Aib 2) [Conjugate 128] | 16.2
H[dS]QGTFTSDYSKYLDEKAAKEFIKWLLNGGPSSGAPPPS (linker 17-24 via K4; ends not checked) [Conjugate 122] | 0.07
H[dS]QGTFTSDYSKYLDEKAAKEFIKWLLNGGPSSGAPPPS (linker 17-24 via K5; ends not checked) [Conjugate 121] | 2.54
HXQGTFTSDYSKYLDEKAAKEFIKWLLNGRNRNNIA (staple K4 on Lys 17, 24; Aib 2) [Conjugate 125] | 0.626

Molecular target: human GLP-1R (human) (UniProt P43220)
Assay: cell-based or functional assay

Chain of human GLP-1R (human) (P43220 24-463): as the sequence (P43220 24-463) above

Molecule | EC50 cAMP 0% FBS [nM]
H[dS]QGTFTSDYSKYLDECAAKEFICWLLNGGPSSGAPPPS (linker 17-24 via L4A; ends not checked) [Conjugate 135] | 0.0075
H[dS]QGTFTSDYSKYLDECAAKEFICWLLNGGPSSGAPPPS (linker 17-24 via L5A; ends not checked) [Conjugate 138] | 0.908

Molecular target: human GCGR (human) (UniProt P47871)
Assay: cell-based or functional assay

Chain of human GCGR (human) (P47871 26-477): as the sequence (P47871 26-477) above

Molecule | EC50 cAMP 0% FBS [nM]
H[dS]QGTFTSDYSKYLDECAAKEFICWLLNGGPSSGAPPPS (linker 17-24 via L4A; ends not checked) [Conjugate 135] | 0.0068
H[dS]QGTFTSDYSKYLDECAAKEFICWLLNGGPSSGAPPPS (linker 17-24 via L5A; ends not checked) [Conjugate 138] | 1.42
